Laboratory results as given in the nanobody polyreactivity screen of Harvey et al. (2022).

Assay: yeast display, Sf9 membrane polyspecificity reagent, FACS + sequencing; frameworks hold sequencing errors
How it was run: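 Polyreactivity labels are assigned by the sorting gate from which each nanobody was recovered. The gates were low and high (top ~1%), set on anti-HA fluorescence for expression and streptavidin fluorescence for reagent binding. Before sorting, galactose-induced (36–48 hours) yeast display cells were stained for 1 hour at 4 °C with 10% biotinylated, detergent-solubilized Sf9 membrane reagent.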

Sequence | polyreactivity (PSR sort gate)
QVQLVESGGGLVQAGGSLRLSCAASGRIFGRYVMGWYRQAPGKERELVAVITGGGTRTYYADSVKGRFTISRDNAKNTVYLQMNSLKPEDTAVYYCAAPYRPDVDYWGQGTQVTVSS | high polyreactivity
QVQLVETGGGLVQAGGSLRLSCAASGFIVAEYAMGWYIQAPGKERELVAAITRSGGRTYYADSVKGRFTISRDNAKNTVYLQMNSLKPEDTAVYYCAAGLGYPRLYYWGQGTQVTVSS | high polyreactivity
QVQLVESGGGLVQAGGSLRLSCAASGRTFSANAMGWYRLAPGKERELVATISSGGRTNYADSVKGRFTISRDNAKNTVYLQMNSLKPEDTAVYYCAKRGPYNRWYGRYDYWGQGTQVTVSS | low polyreactivity
QVQLVESGGGLVQAGGSLRLSCAASGSTFGTYAMGWYRKAPGKERELVAAISTGGSTYYADSVKGRFTISRDNAKNTVYLQMNSLKPEDTAVYYCAALADYVRRASEYWGQGTQVTVSS | high polyreactivity
QVQLVESVGGLVQAGGSLRLSCAASGRIFNYNAMGWYRQAPGKERELVAAITSSGDSTNYADSVKGRFTISRDNAKNTVYLQMNSLKPEDTAVYYCNASSPYDYDWGQGTQVTVSS | low polyreactivity
QVQLVESGGGLVQAGGSHRLSCAASGRIFNNNAMGWYRQAPGTEREFVAAISSGGGSTYYADSVKGRFTISRDNAKNTVYLQMNSLKPEDTAVYYCAARRHGRVDYSQGSRESYYWGQGTQVTVSS | high polyreactivity
QVQLVESGGGLDQAGGSLSLSCAASGYTYRLYAMGWYRQAPGKERELVAAITWRGGSTYYADSVKGRFTISRDNAKNTVYLQMNSLKPEDTAVYYCAAEFYIGRQGNYWGLGTQVTVSS | high polyreactivity
QVQLVESGGGLVQAGGSLRLSCAASGIIFPYYAMGWYRQAPGKESELVAAISQSGGSTYYADSVKGRFTISRDNAKNTVFFQMNSVKPEDTAVYYCDKFIPSYHDGDYWGQGTQVTVSS | low polyreactivity
QVQLVESGGGLVQAGGSHRLSCAASGRTFYTNAMGWYRQEPGKERELVARIRRGGTTNYADSVKGRFTISRDNAKNTVYLQMNILKPEDTAVSYCNARRHGGVQPFYFYRNQYELDYWGLGTQVTVSS | high polyreactivity
QLQLVESGGGLVQAGGSLRLSCAASGRTFYSYAKGWSRPAPGTDRQFVAAISVRGVITYYADSVKGRFTISRDNAKNTVYLQMNSLKPEDTAVDYCAADWSGYYTFDYWGQGTQVTVSS | low polyreactivity
QVQLVESGGGLVQAGGSLRLSCAAAGNIFSPYAMGWYIQAPGKERELVAAISYSGGSTYYADSVKGRFTISRDIAKNTFYLQMNSLKPEDTAVYYCAVVYSYYLAVLGYWDYDYWGQGTQVTVSS | low polyreactivity
QVQLVESWGGLVQAGGSLRLSCAASGSTFILYAMGGYRQAPGNERELVAAITSRGVSTYYADSVKGRFTISRDNAKNTVYLQMNSLKPEDTAVYNWAADQYQASYYYWGQGTQVTVSS | low polyreactivity
QVQLVESGGGLVQAGGSLRLSFAASGLIFPSYTMGWYRQAPGNYGELVAGINSGGSTNYAESVMGRFTISRDIAKNTDYLQMNSQKAEHTAVYYCAKDNNYYWYVSPRDYWGQGTQVTVSS | low polyreactivity
QVQLVESGGGLVQAGGSLRLSCAASGRIFQYNVMGWYRKAPGKERELVASISDGVGTNYADSVKGRFTISRDNAKNTVYLQMNSLKPEDTAVYYCARDLDPGYQYTGPYDYWGQGTQVTVSS | low polyreactivity
QVQLVESGGGLVQAGGSLRLSCAASGSTFSPNARGWYRQAPGKERELVAAITYRGANTYYADSVKGRFTISRDNAKNTVYLQMNSLKPEDTAVYYCAAENWIGAYYWGQGTQVTVSS | low polyreactivity
QVQLVESGGGLVQAGGSLRLSCAASGLTYWAYAMGWYRQAPGKERDFVAAISWSGDSTYYADSVKGRYTISRDNAKNTVYLQMNSLKPEDTAVYYCAAEWYYVYIAPYDYLGQGTQVTVSS | low polyreactivity

Sequence | polyreactivity (PSR sort gate)
QVQLVESGGGLVQAGGSLRLSCAASGGIFGYYAMGWYRQAPGKEREFVAAITARGGRTYYADSVKGRFTISRDNAKNTVYLQMNSLKPEDTAVYYCAAYSPVWGRYYHRVERDYWGQGTQVTVSS | high polyreactivity
QVQLVESGGGLVQAGGSLRLSCAASGSTFGENAMGWYRQAPGKERELVAAISSGGSTNYADSVNGRFTISRDNAQNTVYLQMNSLQPEDTAVYYCNRYPVRDTGGYWGQGTQVTVSS | low polyreactivity
QFQLVESGGGLVQAGGSLRLSCAASGITFDVNAMGCYIQAPGKERELVASITAGGNTYYSDSVKGRFTISRDNAKNTVYLQMNSLKPVDTAVYFCAAVSTSLYCAGYDYWGQGTQVTVSS | low polyreactivity
QVQLVESGGGLVQAGGSLRLSCAASGRIFFYYAMGWYRQAPGKEREMVAAISWSGSSTYYADSVKGRFTISRDNAKNTVYLQMNSLKPEDTAVYYCAADYYIDYFYYDYWGQGTQVTVSS | high polyreactivity
QVQLVESGGGLDQAGGSLRLICAASGRIFKWYAMGWYRQAPGKERELVATITWSGGSTYYADSVKGRFTISRDNAQNTVYLQMNSLKAEDTAVYYCNADTWLALPCFDYWGQGTQVTVSS | high polyreactivity
QVQLVESGGGLVQAGGSLRLTCAASGRTFQYYVMVWYRQAPGKEREFVAAISTSGGRTYYADSVKGRFTISRDNAKNSVYLQMNSLKPEATAVYYCAATGFSYRYFQTRDYWGQGTQVTVSS | high polyreactivity
QGQLVESGGGLVQAGGSLRLSCPASGRTFYGYAMGWYRQAPGKERELVAAITSSGGSTYYADSVKGRFTISRDHAKNTVYLQMNSLIPEDTAVYYCAAPSSRGQGRNFDYWGQGSQVTVSS | high polyreactivity
QVQLVESGGGIVQAGGSLRLSCAASGISFLRYAMGWYRQAPGKEREFVAAINSIVGRTYYADSVKGRFTISRDNAKNTVYLQMNSLIPDDTAVYYCAADSNVRYGMDYWGQGTQVTVSS | low polyreactivity
QDQLVESGGGLVQAGGSLRLSCAASGSIFPDYTMGWYRQAPGKERELVPGNTWNGGGTYYADSVKGRITISRDNAKNTVYLQMYSLKPEDTAVYYCAAVWSGSRSTGAWGPYNYWGQGTQVTVSS | low polyreactivity
QFQLVESGGGLVQAGGSLRLSCAASGFIFTNVMGWYRQSPGKERELVAAISGRGTSTYYADSVKGRFTISRDNAKNTVYLQMNSLKPEDTAVYYCAAYFTSRLDYWGQGTQVTVSS | high polyreactivity
QVQLVESGGGLVQAGGSPRLSCAASGSISNYYGMGWYRQAPRKERELVAAITWGGGRTNYADSVKGRFTISRDNAKNTVYLQMNSLKPEDTAVYYCAKVSVTHRYGAGGDYWGQGTQVTVSS | low polyreactivity
QVQLVESGGGLVQAGGSLRLSCASSGSTFVTYAMGWYRQAPGKERELVAAITEDGASTYYADSVKGRFTISRDNAKNTVYLQMNSLKPEDTAVYYCAADPTYWPVWYVLYDYWGQGTQVTVSS | low polyreactivity
QVQLVESGGGLVQAGGSLRLSCAASGRIFGPYVMGWYRQAPGKERELVAAISTSGTSTYYADSVKGRFTISRDNAKNTVYLQMNSLKPEDTAVYDCGIRSGARHRLMDYWGQGTQVTVSS | low polyreactivity
QVQLVESGGGSVQAGGSLRLCCAASGRILESYAMGWYRQAPGKERELVAAINSGASTYYADSVKGRFTISRDNAKNTVYLPMNSLKPEDTAVYYCAADYRYGAYDDWGQGTQVTVSS | low polyreactivity
QVQLGESGGGLVQAGGSLRLSCAASGSTFWPYAMGWYRQAPGKERELVATIRWSGGSTSYADSVKGRFTISRDNAKNTVYLQMNSVKPEDTAVFYCAARDFHYYRFKTYGYWGQGTQVTVSS | high polyreactivity
QVQLVESGGGLVQEGGSLRLSCAASGNTFKYYSMGWYRQAPGKERELVAAITWNGARTYYADSVKGRFTISRDNAKNTVYLQMNSLKPEDTAVYYCNARQGYRFDYWGQGTQVTVSS | high polyreactivity
